According to a protein production outcome set (Wang et al. 2014):
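Note: failed if final PepcDB status was selected cloned or expressed and not failed if soluble or beyond.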

Assay: label from the status in PepcDB records
For “MKKLYRYVLFTFLLIFSQLSFANWDLTDNQPIEISAQATNIEADIRALPEQHFFSNNDYAQVKRLLSTTISQQKEHATALKEALATYREDSSNQNWIAVETVHQSLTSLNLSKEQLLKLTNSTTREQLTGFGPYGVTQFYSELSITKLNIEYYLHYQIRSFKNLLKDLTISPVPIISVIFKVLCVFFIFSWWMKNSSRLINDFKTSKLENGTKPNFFIRSIWYLTRAHKAIAWLLLITVTLRIVSTLPSLQHLIFLEIFTWWILGGSIAVSFILEFIYRNSKHNKKEIIALRLSTVRHYVWGIIVAGVILQISSRTLGQGTIYAWINSLMYLFFVLLTIHTLRKWKPTVFERIERVDPLPLSIQWAKRNQKTFLISIAATACGAAWLSWRALQHSIIALLSQYAAFSHALAYLFRIEVAKQTEVAREQSNLVRVKGTAAFDYIAPGSEDSELIEDYAKDEMSALSRYLLTESPAVCVLSGERGVGTTTLLNRILNKVKNATPIYINCPYDGYSALLPELAKQLGLDEESSERDILQYLRNSDTCYLLAFDSAQRLVKPKVNGLADLMKLTNLLRRARKSHRVVLAIEKSCWRFIDRARGERLLFDLVTFMPKWDEKQIGQLLESRITLSEGQPTISFDGLVLPRQWDEENLTEEERARNGFYRILWDYSDGNPTVALRFFRLSLHRDKDTDAILVRLFRAPHSDDLETMPKPMLAVLRSIVQLEVASPADVCDCSRLSMAEVISTLRYFQSRGYIEWSDDKARISDHWFRHITNVLHRQHLLVK”, the protein production was “failed”. In the case of “MKKNYTYPFTAIVGQEEMKLALILNIINPAISGVLIRGEKGTAKSTAVRALADILPEIEVIAGIPFNLAPDEDDETIRECFTVTGHAMPDPDNLEVTMHKVQVVELPVGATEDRVVGTLDLEHALKTGEKRIEPGLLAAAHRGILYVDEVNLLDDHVVDVLLDSAAMGVNTIEREGVSFSHPARFTLVGTMNPEEGELRPQLLDRFGLCVHVGGIADPQDRVTVMERRFAFEQDQERFCSEWQGESSKLAERIVAARELYPSVTISREHLLGIAKSCLKVGVDGHRGDIIIMKTAKTIAAWEGRHCVGSDDIDRAVALALPHRIRRQPLQDMVMDVGSLLGSKCTTN”, the protein production is reported as “failed”. With “MKKQIALVALLFLGMSCFNASAQFKKFNLGKAIQAGKDAAQAISLSDADIAAMSKEYMEWMDKHNPLTKPDSEYGKRLERLTGNIKEVDGMKVNFGVYEVVDVNAFACGDGSVRICAGLMDVMTDEEVMAVIGHEIGHVIHTDSKDAMKNAYFRSAVKNAAGAASSQVAKLTDSELGAMAEALAGAQYSQKQEYEADAYGVEFCVKNNIDPYGMYKSLNKLLELSNGAPASSYMQRMFSSHPDTAKRVARAKELADKYKQLEHHHHHH” the protein production was “not failed”. With “MKKQRNLRSMAAQAVEQVVEQGQSLSNILPPLQQKVSDKDKALLQELCFGVLRTLSQLDWLINKLMARPMTGKQRTVHYLIMVGLYQLLYTRIPPHAALAETVEGAIAIKRPQLKGLINGVLRQFQRQQEELLAEFNASDARYLHPSWLLKRLQKAYPEQWQSIVEANNQRPPMWLRINRTHHSRDSWLALLDEAGMKGFPHADYPDAVRLETPAPVHALPGFEDGWVTVQDASAQGCMTWLAPQNGEHILDLCAAPGGKTTHILEVAPEAQVVAVDIDEQRLSRVYDNLKRLGMKATVKQGDGRYPSQWCGEQQFDRILLDAPCSATGVIRRHPDIKWLRRDRDIPELAQLQSEILDAIWPHLKTGGTLVYATCSVLPEENSLQIKAFLQRTADAELCETGTPEQPGKQNLPGAEEGDGFFYAKLIKK” the protein production was “failed”. For “MKKRIIFFLILLVSFRIFADYKSEYDNLLSARNIKGIAALLPKWEKAEPKNPELYIAYFNYYLLKGQRSTQSLDTYKKDNTNSLALVDQKTNKIAGYLNNNIWYEKEDVDKALSYLEKGLKFGKNRLDMYFGRIHILGEIGEYEKQSQKIIEVLKLGKEINHKWLWSMNEVIPSSESEHFFLISINEYYKNWLQKSSPQTLNAAEKTGEAQLKLYPKNIEVHNYLSLAYIGQGKFKEALNVLLKADKLANEDYVIIFNMGRCYEALKQYDKAKECYLRMKKNPNKQVQDMADQKLSELKKLTK”, the protein production was “failed”. With “MKKRIKELTDLLNRYRYDYYTKDAPSVSDSDYDKLYRELVTLEQSYPEYVLQDSPTQQVGGTILKGFEKYRHQYPLFSLQDAFSREELDAFDKRVKAEFPNATYLAELKIDGLSISLSYENGFLQVGATRGDGNIGENITENIKKIKDIPYQLSEPLTITVRGEAYMSRQSFKAINEARQENGETEFANPRNAAAGTLRQLDTSVVAKRQLATFLYQEASPTARNQQNEVLAELADLGFSVNPYYQLTSSMDEIWDFIKTIEAKRDQLAYDIDGVVIKVNSLAMQEELGFTVKAPRWAIAYKFPAEEKEAEILSVDWTVGRTGVVTPTANLTPVQLAGTTVSRATLHNVDYIAEKDIRIGDTVIVYKAGDIIPAVLNVVMSKRNQQEVMLIPKLCPSCGSELVHFEDEVALRCINPLCPSLIQRSLEHFASRDAMNITGLGPAIVEKLFLAGFVHDVADIYQLTKEDFMQLDGIKEKSADKLLAAIEASKSNSAEKLLFGLGIRHIGSKVSRLILEVYGDISALLTAKEEEIARIDGLGSTIAQSLTQYFEQKTAAILVDELKTAGVNMHYSGQKVNSDAALFGLTVVLTGKLNQLNRNEAKDKLEALGAKVTGSVSKKTDLVIAGSDAGSKLEKAKSLGIRIEDEDWLRQL” the protein production was “failed”. In the case of “MKKRNISVPSKAYLALIIATLCWGGNTVAGKLAVGHISPMAFTFLRWVLAVAIIFAISVPQLIKDWPVVKQRLPYFFVLGSVGYTAFNVFLYTALQHTSAINAAVIQAGIPMVIFVLNFVLFRTRVLFGQIAGFCLTISGVALLASHGDPLSLLQLEMNVGDAVMLLAVLVYAIYTVILRWKPAVDWRTLMAIPAFFALLTSVPLVFFEMSRESLIWPDQKGWMLVVYAGIFASLIAQILYIKGVEQIGANRAGLFINLVPVFGTLLSVFVLSETLHTYQIAALFMALAGIAVAERKKSPAS”, the protein production is reported as “failed”. For “MKKSKHLKRPYLKRSHLKHSDKASSFKGLLKKEDNVISLENFKPKESEDLLENFSNKKDMQELLGLLNQFILQSYKVEKEFKDYKALYEWVIEILPQAIWVVNENGSFFYKNSLANQSHEVFNKAKLENFNTEIEHENKSYLVQQNSIQGKQIITATDISAQKRQERLASMGKISAHLAHEIRNPVGSISLLASVLLKHANEKTKPIVVELQKALWRVERIIKATLLFSKGIQANRTKQSLKTLESDLKEALNCYTYSKDIDFLFNFSDEEGFFDFDLMGIVLQNFLYNAIDAIEALEESEQGQVKIEAFIQNEFIVFTIIDNGKEVENKSALFEPFETTKLKGNGLGLALSLQVVKAHEGSIALLENQEKTFEIKILNAS”, the protein production was “failed”. For “MKKTLILILCLFLCTVSFARKRVKVACVGNSITYGIGVSDPDKESYPARLQQMLGEGYTVERFGKPGATLLNKGHRPFMQQKEFKDALAFAGDVVVIHLGVNDTDPRDWPNYRDFFIADYRALIDSFRVANPECRILIARLTPIADRHPRFESGTRDWHDEIQLAIETIAKYAQVQLIDFHAPLYPYPFMLPDAVHPDKEGAAVLAKTVYEGITGDFGGLQMPEIYTDNMVLQHGRLLTIQGKADAGEKVTVSIDRQKLQAVTGADGKWAVDVRPLKAGGPYTLTVSTEKRKLVYENVLAGEVWLCSGQSNMEFYLNWSATAAQDVPQAANSNIRFYDMKARWRTDAVEWDASVLDSLNHLQYYKDTRWTVCSPETAGNFSAVAYYFGKKLQDSLQVPVGLICNAIGGSPTEAWIDRSTLEYRFPAILRNWMQNDFIQDWVRGRAALNVKQSSNKLQRHPYEPCYLYESGIRPLEQFPVKGFIWYQGESNAHNREAHEKLFGLLVESWRKNWGDAELPFYFVQLSSIDRPSWTWFRDSQRRLMAEIPHTGMAVSSDRGDSLDVHPKQKREVGERLAAWALNKTYGYKNVIPSGPLYKSVVFSGGAAYISFDYAEELSTSDGKSLRTFEVAGDDGLFYPAQAVVENGKIKVWSDKVKEPETVRYGWQPFTRANLVNGAGLPASTFRAE”, the protein production was “failed”. With “MKKTPIVFILFLLNFICLGQADTTMLLSDKAVQIEGTDAVNDLYNFKFEKAEGYFLYLKSQHPNHPMPYFLMALSNWWKMMPYIDNNDYTNAYEKEFLYYIDQTIEKGEEQFKADDQNVEAAFFLCAAHGFKGRYFSENKGYVKAAFAGKSALHYLTYTKGKGDLNPEFLFGESIFNYYAEWIKEEYPLLKPLVGLFPKGDKAVGLAQLKECATNAFYTRIEAQYFLLRIYTNEENNSRAAYPYAKYLSENFPDNPYFQRVYARLSFELGYYAQCEKICYDINYKVNIEMPGYEVNTGRYAAYFLGRILYEKSDLEKSKFYLLKTAAFAESGNMNKMGYSLSAYYYLGMIEVKSQNYSEAEKFFLKVIDLGEDKQDNSAVYNYSYASYQLASVYEKQQNTKRAESFYKDAIKRVKKLDEKSYASTIKEITANSEAGLERLKQPKK” the protein production was “failed”. In the case of “MKKVKIFSIVLPLIYTSFMLYVTYKVYNGLRYRSLDLGIFTQSLYSLSEGKLFYNTVEFQLYEVHTHFGVHFQPILFLLTPLFLIKRDAYTLIIIQTLALGTSVYLAYKLAVKELGEKKGFALAILYSCNSSLISINVFEFHPVSLAVPLFLLAYKFLREESPLFYVISTLILLTKEDAFLGVLSITAWKILKEGLSVETLKKNKKIILFTILTLLYGIFTIKVVIPKFGGEYIYSNLYMEPRLDRRKLTYFLLFNLTFALLPLLNFFAILSLLPPWLECLLASRESQTMFGFHYPYMLVPLSFVISLDVAKKLDWKILRNLAILGVISSLITLPITNHLPKEQNPLVYPTVITPIPGKEASWEAIKITRELEGPIYTQPEFYPALATRLDVYVYPKNVKPKIILVNLNTYYGRRALERIKAFRVNLSEYKKVFEKDGVLIMVRKD”, the protein production is reported as “failed”. In the case of “MKKWFPALLFSLCVSGESSAWNNIVFYSLGDVNSYQGGNVVITQRPQFITSWRPGIATVTWNQCNGPEFADGFWAYYREYIAWVVFPKKVMTQNGYPLFIEVHNKGSWSEENTGDNDSYFFLKGYKWDERAFDAGNLCQKPGEITRLTEKFDDIIFKVALPADLPLGDYSVKIPYTSGMQRHFASYLGARFKIPYNVAKTLPRENEMLFLFKNIGGCRPSAQSLEIKHGDLSINSANNHYAAQTLSVSCDVPANIRFMLLRNTTPTYSHGKKFSVGLGHGWDSIVSVNGVDTGETTMRWYKAGTQNLTIGSRLYGESSKIQPGVLSGSATLLMILP”, the protein production is reported as “not failed”. In the case of “MKLAMKLRTRLFLSISALITVALLGLLLGLVSVMQMARTQESLIQHNFAILDLGLKLRQNLGDQLVLMTGATRNPPELEKIQRQFEELLEEASAQDTQEDVRNGLEGTWVDYRRFIDALKQFGTDPRGIRGNPQLSESFDSLRNGLLNVHRKALENISSAEINSRDRALWIAGLLGLVGLAVLCIGFVTAHGIARRFGAPIEALAKAADRIGEGDYEVTLPISSAAEMNLLTRRFGIMAEALRQHQATNVDELLAGQQRLQAVLDSIDDGLLMIDRQGHLEHLNPVAQRQLGWDESRLGQSLGEALSRPELDEQLHLVLRGGTLERAPEDLAIDIDGESRLLTYSMTPVSHTKGHILGAVMVLHDVTEQRAFERVRSEFVLRASHELRTPVTGMHMAFGLLQERLHFAPESREADLLNTVTEEMQRLMQLINDLLNFSRYQNGLQKLKLAPCSIETLLEEARARYEGQAQEQEIVLMLDIQEPMPRLHADQSQLERVLDNLLDNALRHTPPNGLIRLQARRHGERAIISVEDNGEGIAYGQQGRIFEPFVQVGRKKGGAGLGLALCKEIVQLHGGRMGVYSRPGQGTQFYMALLL”, the protein production is reported as “failed”. With “MKLATKKNGTRDGLLMVVSKDLTRCVPATEVFHPRNLAPTMQVALDNWEAVAPQLEEIYTALNNGTVAGFEEFEAHYCESPLPRAYQWADGSAYVNHVELVRKARGAEMPESFWTDPLMYQGGSDAFIGPCDNIEFASDEWGIDFEGEVAVVTGDVPMGASIAEAQESIRLIMLVNDVSLRGLIPAELAKGFGFFQSKPSSAFSPVAVTPDELGDEWYENKVHLPLVSTYNHKPFGRPNAGVDMTFDFADLIVHATKTRPLSAGAIIGSGTVSNKQGTDHGTSIEEGGVGYSCIAEVRMIETIRDGKPTTNFMSFGDSIKLEMFDVEGNTIFGAIDQQVSQYLKH” the protein production was “failed”.
